Data as given in paper PMC9343077 (Research, 2022).

Target: T1, SARS-CoV-2 spike RBD (Arg319-Asn532) fused to a His tag (SARS-CoV-2, UniProt P0DTC2)
T1 construct: also called SARS-CoV-2 spike RBD-His; SARS-CoV-2-RBD-His; not shown: His tag, N-terminal, kept
Test: radioligand binding
Details: both partners purified

B1: ^68Ga-Nb1159 (nanobody Nb11-59 conjugated to NOTA and radiolabeled with ^68Ga) (VHH)
VHH: EVQLQESGGGLVQPGGSLRLSCAASGFTFSSYDMSWVRQAPGKGLEWVSAINSSGGSTYYADSVKGRFTISRDNAKNTLYLQMNSLKTEDTAVYYCAPSQTYGGSWYWDPIGDWGQGTLVTVSS
notes: also called ^68Ga-NOTA-Nb1159; NOTA-Nb1159 (before labelling)
Kd: 25.5 nM
